In patent US20230192896A1 (published 2023):
Residue numbers refer to the chain shown, from its start.

T1: FX zymogen (UniProt P00742 41-179; P00742 183-488)
T1 chain 1: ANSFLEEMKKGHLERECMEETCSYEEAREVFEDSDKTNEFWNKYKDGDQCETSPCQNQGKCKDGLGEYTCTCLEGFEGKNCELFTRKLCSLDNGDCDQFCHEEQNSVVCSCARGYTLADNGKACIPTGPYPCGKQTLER
T1 chain 2: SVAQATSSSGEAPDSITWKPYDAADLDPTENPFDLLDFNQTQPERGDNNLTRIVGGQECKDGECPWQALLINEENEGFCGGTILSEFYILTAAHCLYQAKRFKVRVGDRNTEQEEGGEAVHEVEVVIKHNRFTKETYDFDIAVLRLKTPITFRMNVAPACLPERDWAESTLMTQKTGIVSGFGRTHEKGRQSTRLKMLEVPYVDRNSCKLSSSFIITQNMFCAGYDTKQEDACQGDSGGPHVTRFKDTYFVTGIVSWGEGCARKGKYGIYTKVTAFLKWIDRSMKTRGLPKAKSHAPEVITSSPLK

B1: BIIB-9-452 (antibody, V domains shown)
VH: QVQLVQSGAEVKKPGASVKVSCKASGYTFTSYYMHWVRQAPGQGLEWMGIINPSGGSTSYAQKFQGRVTMTRDTSTSTVYMELSSLRSEDTAVYYCARDGRLSYTWDRWGQGTLVTVSS
VL: EIVMTQSPATLSVSPGERATLSCRASQSVSSNLAWYQQKPGQAPRLLIYGASTRATGIPARFSGSGSGTEFTLTISSLQSEDFAVYYCQQANNFPFTFGGGTKVEIK
B2: BIIB-9-616 (antibody, V domains shown)
VH: QVQLVQSGAEVKKPGASVKVSCKASGYTFTSYYMHWVRQAPGQGLEWMGIINPSGGSTSYAQKFQGRVTMTRDTSTSTVYMELSSLRSEDTAVYYCARGGSKYFFDLWGRGTLVTVSS
VL: B1 VL with N32S, N92D
B3: BIIB-9-469 (antibody, V domains shown)
VH: QVQLVQSGAEVKKPGASVKVSCKASGYTFTSYYMHWVRQAPGQGLEWMGIINPSGGSTSYAQKFQGRVTMTRDTSTSTVYMELSSLRSEDTAVYYCARDLGYGRSYDFDLWGRGTLVTVSS
VL: B1 VL with Y49F, A91S
B4: BIIB-9-882 (antibody, V domains shown)
VH: QVQLVQSGAEVKKPGASVKVSCKASGYTFTSYYMHWVRQAPGQGLEWMGIINPSGGSTSYAQKFQGRVTMTRDTSTSTVYMELSSLRSEDTAVYYCARGPTDSSGYLDMDVWGKGTTVTVSS
VL: B1 VL with Y49F, A91H, N92D, F96P
B5: BIIB-9-566 (antibody, V domains shown)
VH: QVQLVQSGAEVKKPGASVKVSCKASGYTFTSYYMVWVRQAPGQGLEWMGIINPSGGSTSYAQKFQGRVTMTRDTSTSTVYMELSSLRSEDTAVYYCARVPTYRYSYLAFDIWGQGTMVTVSS
VL: B1 VL with N32S, A91H, N92D, F94W, F96P
B6: BIIB-9-1282 (antibody, V domains shown)
VH: B5 VH
VL: B1 VL with A91H, N93H, F94L, F96I
B7: BIIB-9-889 (antibody, V domains shown)
VH: QLQLQESGPGLVKPSETLSLTCTVSGGSISSSSYYWGWIRQPPGKGLEWIGSIYYSGSTYYNPSLKSRVTISVDTSKNQFSLKLSSVTAADTAVYYCARDVGWYTEYFDLWGRGTLVTVSS
VL: B1 VL with N92F, F94W, F96P
B8: BIIB-9-1277 (antibody, V domains shown)
VH: QVQLVQSGAEVKKPGASVKVSCKASGYTFTSYYMHWVRQAPGQGLEWMGIINPSGGSTSYAQKFQGRVTMTRDTSTSTVYMELSSLRSEDTAVYYCARGGTGYYYGSGSRDGYHYYYGMDVWGQGTTVTVSS
VL: EIVMTQSPATLSVSPGERATLSCRASQSVSSYLAWYQQKPGQAPRLLIYDASNRATGIPARFSGSGSGTDFTLTISSLEPEDLAVYYCQQSANWPPTFGGGTKVEIK
B9: BIIB-9-1273 (antibody, V domains shown)
VH: B2 VH with G99D, G100T, S101G, K102G, F104A, L107I, R110Q
VL: B8 VL with M4L, S7Y, V13L, L83F, W94F, P96F
B10: BIIB-9-419 (antibody, V domains shown)
VH: QVQLVQSGAEVKKPGASVKVSCKASGYTFTSYYMHWVRQAPGQGLEWMGIINPSGGSTSYAQKFQGRVTMTRDTSTSTVYMELSSLRSEDTAVYYCAREPTFYASYFDLWGRGTLVTVS
VL: B8 VL with V13L, A51S, L83F, S91V, A92S, N93T, W94H, P96Y
B11: BIIB-9-884 (antibody, V domains shown)
VH: QLQLQESGPGLVKPSETLSLTCTVSGGSISSSDYYWGWIRQPPGKGLEWIGSIYYSGSTYYNPSLKSRVTISVDTSKNQFSLKLSSVTAADTAVYYCARSPRHKVRGPNWFDPWGQGTLVTVSS
VL: EIVLTQSPGTLSLSPGERATLSCRASQSVSSSYLAWYQQKPGQAPRLLIYGASSRATGIPDRFSGSGSGTDFTLTISRLEPEDFAVYYCQQYHLLPPTFGGGTKVEIK
B12: BIIB-9-626 (antibody, V domains shown)
VH: QVQLVQSGAEVKKPGASVKVSCKASGYTFTSYYMHWVRQAPGQGLEWMGVINPSGGSTSYAQKFQGRVTMTRDTSTSTVYMELSSLRSEDTAVYYCARDLQYSMTYFDYWGQGTLVTVSS
VL: DIQMTQSPSTLSASVGDRVTITCRASQSISSWLAWYQQKPGKAPKLLIYKASSLESGVPSRFSGSGSGTEFTLTISSLQPDDFATYYCQQDGSYPPLTFGGGTKVEIK
B13: BIIB-9-408 (antibody, V domains shown)
VH: QVQLVQSGAEVKKPGASVKVSCKASGYTFTSYYMHWVRQAPGQGLEWMGIINPSGGSTTYAQKFQGRVTMTRDTSTSTVYMELSSLRSEDTAVYYCARDPGAYDDWSGYDDYGMDVWGQGTTVTVSS
VL: EIVLTQSPATLSLSPGERATLSCRASQSVSSYLAWYQQKPGQAPRLLIYDASNRATGIPARFSGSGSGTDFTLTISSLEPEDFAVYYCQQAFVWPPITFGGGTKVEIK
B14: BIIB-9-446 (antibody, V domains shown)
VH: QVQLVQSGAEVKKPGSSVKVSCKASGGTFSSYAISWVRQAPGQGLEWMGGIIPIFGTASYAQKFQGRVTITADESTSTAYMELSSLRSEDTAVYYCARGLEVGYYGYFDYWGQGTLVTVSS
VL: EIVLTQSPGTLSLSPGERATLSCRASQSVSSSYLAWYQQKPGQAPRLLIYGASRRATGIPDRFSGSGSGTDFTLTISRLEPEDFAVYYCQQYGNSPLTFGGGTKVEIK
B15: BIIB-9-1280 (antibody, V domains shown)
VH: QVQLVQSGAEVKKPGASVKVSCKASGYTFTSYYMVWVRQAPGQGLEWMGIINPSGGSTSYAQKFQGRVTMTRDTSTSTVYMELSSLRSEDTAVYYCARGPWYSYYYMDVWGKGTTVTVSS
VL: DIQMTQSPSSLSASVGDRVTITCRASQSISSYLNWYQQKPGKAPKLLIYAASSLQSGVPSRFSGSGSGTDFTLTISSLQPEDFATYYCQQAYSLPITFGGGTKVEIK
B16: BIIB-9-627 (antibody, V domains shown)
VH: QVQLVQSGAEVKKPGASVKVSCKASGYTFTSYYMHWVRQAPGQGLEWMGIINPSGGSTSYAQKFQGRVTMTRDTSTSTVYMELSSLRSEDTAVYYCARADYDYWSGYGGLGMDVWGQGTTVTVSS
VL: not shown
B17: BIIB-9-1265 (antibody, V domains shown)
VH: B7 VH with V101G, G102R, W103H, T105Y, Y107L, L110Y, R113Q
VL: DIQMTQSPSSVSASVGDRVTITCRASQGISSWLAWYQQKPGKAPKLLIYAASSLQSGVPSRFSGSGSGTDFTLTISSLQPEDFATYYCQQGNSFPITFGGGTKVEIK
B18: BIIB-9-1286 (antibody, V domains shown)
VH: B5 VH
VL: B17 VL with A84V, G91A, N92S, I96P
B19: BIIB-9-579 (antibody, V domains shown)
VH: B15 VH
VL: B17 VL with V11L, G28S, W32Y, A34N, A50G, G91A, N92F, I96F
B20: BIIB-9-625 (antibody, V domains shown)
VH: B7 VH with Y35A, V101R, Y107V, F108L, L110I, R113Q, L116M
VL: B17 VL with V11L, G28S, W32Y, A34N, G91S, N92D, S93T, F94D, I96P
B21: BIIB-12-1299 (antibody, V domains shown)
VH: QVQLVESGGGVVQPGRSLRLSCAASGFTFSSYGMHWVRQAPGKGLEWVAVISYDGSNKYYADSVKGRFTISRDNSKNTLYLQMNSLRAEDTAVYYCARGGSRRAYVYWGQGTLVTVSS
VL: B1 VL with A91L, F96I
B22: BIIB-12-928 (antibody, V domains shown)
VH: QVQLVEFGVGVVQPGRSLRLSCAASGFTFSSYGMHWVRQAPGKGLEWVAVISYDGSNKYYADSVKGRFTISRDNSKNTLYLQMNSLRAEDTAVYYCAKGGTYLDTWGQGTLVTVSS
VL: B11 VL with S30R, H93V, L94R, L95F, P97L
B23: BIIB-12-920 (antibody, V domains shown)
VH: QVQLVQSGAEVKKPGASVKVSCKASGYTFTSYGISWVRQAPGQGLEWMGWISPYNGNTNYAQKLQGRVTMTTDTSTSTAYMELRSLRSDDTAVYYCARGSGHTTMFWGQGTLVTVSS
VL: EIVMTQSPATLSVSPGERATLSCRASQSVSSNLAWYQQKPGQAPRLLIYSASTRATGIPARFSGSGSGTEFTLTISSLQSEDFAVYYCQQANAYPPTFGGGTKVEI
B24: BIIB-12-934 (antibody, V domains shown)
VH: QVQLVESGGGVVQPGRSLRLSCAASGFTFSSYGMHWVRQAPGKGLEWVAVISYDGSNKYYADSVKGRFTISRDNSKNTLYLQMNSLRAEDTAVYYCARESGGHSYGMDVWGQGTTVTVSS
VL: B23 VL with M4L, S50G, A91F, A93D, Y94H, P96I

Each binder was assayed against free FIXa (activated Factor IX) (UniProt P00740 47-191; P00740 227-461) (assay: BLI).

Kd [nM]	Binder
11.7	B1
16.8	B2
13.3	B3
2.31	B4
21.4	B5
43.9	B6
40.7	B7
58.8	B8
20.9	B9
21.1	B10
1.79	B11
166	B12
1.36	B13
17.5	B14
51.7	B15
233	B16
59.8	B17
31.8	B18
11.3	B19
11.3	B20

Target: T1, FX zymogen
Assay: BLI

Kd [nM]	Binder
50.8	B21
23.1	B22
27.7	B23
60.2	B24
